Measurements reported in US20260250418A1 (BIOCYTOGEN PHARMACEUTICALS BEIJING, published 2026).
Values belong to the binder of their own block, whether it stands above or below them.

What was measured:
[1] = target: T1, monkey (Macaca fascicularis) HER3 on CHO-fasHER3 cells (monkey (Macaca fascicularis), UniProt P21860 20-643 (human entry)); assay: flow cytometry, transfected CHO cells
T1 construct: CHO-S cells transfected with fasHER3
T1 chain: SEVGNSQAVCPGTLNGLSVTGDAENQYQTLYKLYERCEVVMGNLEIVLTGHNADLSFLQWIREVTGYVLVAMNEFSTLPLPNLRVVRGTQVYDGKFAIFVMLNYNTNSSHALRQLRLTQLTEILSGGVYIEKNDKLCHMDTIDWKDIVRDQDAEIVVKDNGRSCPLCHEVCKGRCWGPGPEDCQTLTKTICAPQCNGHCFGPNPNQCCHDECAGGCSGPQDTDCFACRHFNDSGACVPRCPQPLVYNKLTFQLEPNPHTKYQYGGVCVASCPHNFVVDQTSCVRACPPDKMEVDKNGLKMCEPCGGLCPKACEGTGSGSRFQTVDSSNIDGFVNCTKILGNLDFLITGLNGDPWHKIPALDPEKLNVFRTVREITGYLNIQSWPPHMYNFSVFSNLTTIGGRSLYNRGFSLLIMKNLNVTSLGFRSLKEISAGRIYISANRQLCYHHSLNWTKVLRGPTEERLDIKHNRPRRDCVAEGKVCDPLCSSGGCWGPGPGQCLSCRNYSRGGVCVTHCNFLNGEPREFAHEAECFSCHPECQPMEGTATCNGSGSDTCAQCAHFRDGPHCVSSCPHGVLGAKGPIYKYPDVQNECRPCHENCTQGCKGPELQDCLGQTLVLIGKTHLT
Method: (§1) CHO-hHER3 cells, CHO-mHER3 cells, CHO-fasHER3 cells or CHO-dHER3 cells were transferred to a 96-well plate at a density of 5×10⁴ cells/well respectively. The anti-HER3 antibodies were added to the 96-well plate, and incubated at 4° C. for 30 min.

[2] = target: T2, dog HER3 on CHO-dHER3 cells (dog, UniProt P21860 20-1342 (human entry)); assay: flow cytometry, transfected CHO cells
T2 construct: CHO-S cells transfected with dHER3
T2 chain: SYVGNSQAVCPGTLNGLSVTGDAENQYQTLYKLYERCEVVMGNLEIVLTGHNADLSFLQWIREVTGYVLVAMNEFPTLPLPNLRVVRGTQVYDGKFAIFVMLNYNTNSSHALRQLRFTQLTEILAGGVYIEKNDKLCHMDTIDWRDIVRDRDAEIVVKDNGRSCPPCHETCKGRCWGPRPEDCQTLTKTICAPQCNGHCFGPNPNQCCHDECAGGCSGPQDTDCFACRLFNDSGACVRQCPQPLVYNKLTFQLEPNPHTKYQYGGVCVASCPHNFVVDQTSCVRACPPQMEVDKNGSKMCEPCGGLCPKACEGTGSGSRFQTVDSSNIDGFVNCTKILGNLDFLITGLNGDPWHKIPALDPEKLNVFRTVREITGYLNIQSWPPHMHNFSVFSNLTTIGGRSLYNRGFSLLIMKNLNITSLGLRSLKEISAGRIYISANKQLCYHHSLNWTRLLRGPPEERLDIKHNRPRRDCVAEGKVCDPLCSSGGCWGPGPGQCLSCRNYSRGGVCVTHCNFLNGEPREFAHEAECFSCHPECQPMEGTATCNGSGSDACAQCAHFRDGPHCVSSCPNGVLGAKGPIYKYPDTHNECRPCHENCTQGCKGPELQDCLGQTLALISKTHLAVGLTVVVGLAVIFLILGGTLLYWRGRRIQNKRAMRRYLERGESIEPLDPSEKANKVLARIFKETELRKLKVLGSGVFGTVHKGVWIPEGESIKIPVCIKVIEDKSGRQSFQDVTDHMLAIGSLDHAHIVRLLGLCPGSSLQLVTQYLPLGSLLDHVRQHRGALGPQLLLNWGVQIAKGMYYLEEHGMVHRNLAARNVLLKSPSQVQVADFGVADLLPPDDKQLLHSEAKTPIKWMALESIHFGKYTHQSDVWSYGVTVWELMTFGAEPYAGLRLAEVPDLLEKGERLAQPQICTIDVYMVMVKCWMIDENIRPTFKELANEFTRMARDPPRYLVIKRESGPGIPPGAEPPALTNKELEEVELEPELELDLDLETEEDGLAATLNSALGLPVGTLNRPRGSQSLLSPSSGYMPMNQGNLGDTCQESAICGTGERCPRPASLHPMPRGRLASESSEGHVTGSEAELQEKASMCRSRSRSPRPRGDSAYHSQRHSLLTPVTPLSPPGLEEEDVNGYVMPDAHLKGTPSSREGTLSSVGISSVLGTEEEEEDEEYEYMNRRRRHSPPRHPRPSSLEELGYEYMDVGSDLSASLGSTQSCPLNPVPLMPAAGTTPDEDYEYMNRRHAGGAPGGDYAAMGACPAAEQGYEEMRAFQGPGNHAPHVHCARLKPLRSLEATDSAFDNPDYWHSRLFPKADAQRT
Method: as §1

[3] = target: T3, human HER3 on CHO-hHER3 cells (human, UniProt P21860 20-643); assay: flow cytometry, transfected CHO cells
T3 construct: CHO-S cells transfected with hHER3
Method: as §1

[4] = target: T4, mouse HER3 on CHO-mHER3 cells (mouse, UniProt Q61526 20-641); assay: flow cytometry, transfected CHO cells
T4 construct: CHO-S cells transfected with mHER3
Method: as §1

[5] = target: T5, His-tagged monkey HER3 protein (fasHER3, Sino Biological, Inc., Cat #: 90043-K08H) (monkey); assay: SPR, Ab captured on Protein A
T5 construct: Bought protein
Method: (§2) Purified anti-HER3 antibodies was captured on the Protein A chip (Series S Sensor Chip Protein A) for the detection. […] For ISO control, an antibody targeting an irrelevant target protein was used. The flow rate was 30 μL/min, the binding and dissociation time were set to 180 s and 400 s, respectively. The chip was regenerated after the last injection of each titration with a glycine solution (pH 2.0) at 30 μL/min for 30 seconds.
(§3) As a person of ordinary skill in the art would understand, the same method with appropriate adjustments for parameters (e.g., antibody concentration) was performed for each tested antibody.

[6] = target: T6, His-tagged dog HER3 protein (dHER3, SEQ ID NO: 45) (dog, UniProt P21860 20-642 (human entry)); assay: SPR, Ab captured on Protein A
T6 construct: not shown: His tag
T6 chain: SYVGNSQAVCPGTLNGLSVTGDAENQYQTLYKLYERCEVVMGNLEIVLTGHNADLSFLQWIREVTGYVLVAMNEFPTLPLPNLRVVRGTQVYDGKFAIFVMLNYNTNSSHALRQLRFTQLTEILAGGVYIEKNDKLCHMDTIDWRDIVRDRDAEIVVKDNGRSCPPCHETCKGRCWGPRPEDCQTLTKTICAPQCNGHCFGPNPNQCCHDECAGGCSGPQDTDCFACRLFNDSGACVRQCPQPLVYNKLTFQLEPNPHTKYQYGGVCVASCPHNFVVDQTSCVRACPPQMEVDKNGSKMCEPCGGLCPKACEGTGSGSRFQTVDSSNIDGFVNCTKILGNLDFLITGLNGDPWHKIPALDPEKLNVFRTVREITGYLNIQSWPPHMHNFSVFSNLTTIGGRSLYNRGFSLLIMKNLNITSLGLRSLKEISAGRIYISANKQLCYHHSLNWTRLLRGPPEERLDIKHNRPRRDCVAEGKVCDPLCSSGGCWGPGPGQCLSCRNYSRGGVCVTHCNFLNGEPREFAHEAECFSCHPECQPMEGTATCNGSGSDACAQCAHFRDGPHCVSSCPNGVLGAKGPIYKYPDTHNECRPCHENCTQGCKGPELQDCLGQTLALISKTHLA
Method: as §2, §3

[7] = target: T7, His-tagged human HER3 protein (hHER3, ACRO Biosystems Inc., Cat #: ER3-H5223) (human, UniProt P21860 20-643); assay: SPR, Ab captured on Protein A
T7 construct: Bought protein; also called hHER3-His; not shown: His tag
Method: as §2, §3

[8] = target: T8, human HER4 (hHER4, ACRO Biosystems Inc., Cat #: ER4-H5221), recombinant His-tagged (human, UniProt Q15303 26-649); assay: SPR (Biacore 8K), antibody captured on Protein A chip, His-tagged hHER4 injected at 0-400 nM; response (RU) plotted against concentration [panel F]
T8 construct: Bought protein; not shown: His tag
T8 sequence (looked up): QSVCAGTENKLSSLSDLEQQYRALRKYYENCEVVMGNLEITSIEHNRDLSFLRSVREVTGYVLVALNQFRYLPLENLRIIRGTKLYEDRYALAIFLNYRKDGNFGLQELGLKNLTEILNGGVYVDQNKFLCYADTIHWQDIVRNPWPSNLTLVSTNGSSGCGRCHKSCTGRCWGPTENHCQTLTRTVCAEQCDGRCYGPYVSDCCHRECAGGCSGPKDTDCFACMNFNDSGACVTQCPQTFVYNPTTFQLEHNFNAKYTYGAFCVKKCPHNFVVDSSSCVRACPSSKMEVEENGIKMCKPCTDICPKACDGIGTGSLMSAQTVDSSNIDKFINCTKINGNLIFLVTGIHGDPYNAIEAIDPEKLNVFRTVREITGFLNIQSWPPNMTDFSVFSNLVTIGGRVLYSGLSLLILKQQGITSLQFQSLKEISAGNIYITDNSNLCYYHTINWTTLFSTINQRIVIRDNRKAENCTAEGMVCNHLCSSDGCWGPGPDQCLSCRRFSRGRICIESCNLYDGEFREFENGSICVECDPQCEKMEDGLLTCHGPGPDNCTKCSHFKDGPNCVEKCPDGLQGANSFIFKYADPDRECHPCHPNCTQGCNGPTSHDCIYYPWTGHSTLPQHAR
Method: The cross binding activities of anti-HER3 antibodies to HER family proteins were determined by surface plasmon resonance (SPR) using Biacore (Biacore, INC, Piscataway N.J.) 8K biosensor equipped with pre-immobilized Protein A sensor chips.
Purified anti-HER3 antibodies were diluted to 2 μg/mL and then injected into the Biacore 8K biosensor at 10 μL/min for about 50 seconds to achieve a desired protein density (e.g., about 200 response units (RU)). […] The association phase lasted for 180 s and the dissociation phase lasted 400 s followed by a regeneration step with Glycine (pH 2.0, 30 μL/min for 30 seconds). For isotype control (ISO), an antibody targeting an irrelevant target protein was used.

T4 sequence (Q61526 20-641): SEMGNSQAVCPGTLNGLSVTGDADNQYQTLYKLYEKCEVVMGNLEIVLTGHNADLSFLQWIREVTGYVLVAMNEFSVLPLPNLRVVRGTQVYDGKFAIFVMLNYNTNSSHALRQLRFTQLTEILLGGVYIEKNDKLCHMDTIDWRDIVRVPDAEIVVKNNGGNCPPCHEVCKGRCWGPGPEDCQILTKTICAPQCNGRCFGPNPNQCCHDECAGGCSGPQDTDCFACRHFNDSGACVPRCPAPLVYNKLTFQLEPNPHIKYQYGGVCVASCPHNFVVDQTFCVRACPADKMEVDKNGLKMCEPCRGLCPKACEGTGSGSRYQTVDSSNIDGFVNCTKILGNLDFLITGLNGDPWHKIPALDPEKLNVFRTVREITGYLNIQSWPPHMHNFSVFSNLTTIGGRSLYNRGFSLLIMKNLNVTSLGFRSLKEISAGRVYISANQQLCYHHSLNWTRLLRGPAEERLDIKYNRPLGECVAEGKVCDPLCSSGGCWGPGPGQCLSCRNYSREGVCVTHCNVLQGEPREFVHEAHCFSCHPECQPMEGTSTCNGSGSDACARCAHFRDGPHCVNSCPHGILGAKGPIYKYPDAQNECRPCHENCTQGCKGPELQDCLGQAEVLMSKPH

Percentage of Positive Cells [1]: 62.9%
Percentage of Positive Cells [2]: 38.1%
Percentage of Positive Cells [3]: 68%
Percentage of Positive Cells [4]: 58.9%
Kd [5]: 14.4 nM
koff [5]: 0.00098 s⁻¹
kon [5]: 68000 M⁻¹ s⁻¹
Kd [6]: 77.4 nM
koff [6]: 0.0045 s⁻¹
kon [6]: 58100 M⁻¹ s⁻¹
Kd [7]: 81.4 nM
koff [7]: 0.00769 s⁻¹
kon [7]: 94500 M⁻¹ s⁻¹
B1: anti-HER3 antibody 1D6 (antibody, V domains shown)
VH: EVQLVQSGPGLVKPSETLSLTCTVSGGSISSNNYYWAWIRQPPGKGLEWIGSLYYTGRAYYKSSLKSRVTISVDTSNDQFSLRLTSVTAADTAIYYCARHDCGNTCLNWFDRWGQGTLVTVSS
VL: not shown
notes: common light chain

binding result [8]: no binding (tested: 400 nM)
B2: Patritumab analog (antibody, V domains shown)
VH: QVQLQQWGAGLLKPSETLSLTCAVYGGSFSGYYWSWIRQPPGKGLEWIGEINHSGSTNYNPSLKSRVTISVETSKNQFSLKLSSVTAADTAVYYCARDKWTWYFDLWGRGTLVTVSS
VL: not shown
notes: also called positive control
